Paper PMC5548120

Biological target: T1, rat TRPV2 (transient receptor potential vanilloid 2), full-length, with a 1D4-tag (rat), Q9WUD2
T1 chain: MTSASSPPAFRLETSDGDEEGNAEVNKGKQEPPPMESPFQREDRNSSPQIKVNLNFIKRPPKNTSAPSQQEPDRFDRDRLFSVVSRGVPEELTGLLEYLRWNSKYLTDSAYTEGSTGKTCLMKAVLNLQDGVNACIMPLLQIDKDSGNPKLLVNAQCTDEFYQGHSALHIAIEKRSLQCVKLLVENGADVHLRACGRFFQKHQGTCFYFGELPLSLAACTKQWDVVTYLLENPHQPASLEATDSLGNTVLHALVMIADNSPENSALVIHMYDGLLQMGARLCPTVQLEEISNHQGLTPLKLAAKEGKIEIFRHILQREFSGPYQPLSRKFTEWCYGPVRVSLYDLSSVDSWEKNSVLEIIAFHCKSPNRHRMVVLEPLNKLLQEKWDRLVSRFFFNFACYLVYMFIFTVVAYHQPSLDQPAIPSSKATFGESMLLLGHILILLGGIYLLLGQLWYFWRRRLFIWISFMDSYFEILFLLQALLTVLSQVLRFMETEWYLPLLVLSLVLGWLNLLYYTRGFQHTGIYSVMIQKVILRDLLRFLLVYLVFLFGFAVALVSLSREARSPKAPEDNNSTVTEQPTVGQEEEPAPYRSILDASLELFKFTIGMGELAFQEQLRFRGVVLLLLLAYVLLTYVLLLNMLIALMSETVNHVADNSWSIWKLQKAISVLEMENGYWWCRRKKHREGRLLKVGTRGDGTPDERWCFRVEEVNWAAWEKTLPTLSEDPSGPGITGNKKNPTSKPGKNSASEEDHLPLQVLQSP
Experiment: SEC + native gel or EMSA
Settings: remark: other sources report otherwise

stoichiometry N: 4
B1: rat TRPV2 (transient receptor potential vanilloid 2), full-length, with a 1D4-tag, Q9WUD2 1-761 (natural protein)
chain: T1 chain
